Results: publication PMC12126490, “The HP1 box of KAP1 organizes HP1α for silencing of endogenous retroviral elements in embryonic stem cells” (Nature Communications, 2025)

Key:
[1] = test system: DNA-induced HP1α phase separated droplets; test: in vitro droplet assay; conditions: 50 µM HP1α, 0.18 µM 601 DNA
Text: For droplet assays, cDNA of full-length HP1α was cloned into a pET28 expression vector. His-tag fusion HP1α was expressed in E. coli and purified as in ref. [51]. cDNA of the KAP1FR fragment (aa 114–834) was cloned into a pCAG-GFP expression vector, and the P486A/V488A/L490A mutant of GFP-KAP1FR was generated using overlap extension PCR. Purification of GFP-KAP1FR proteins was described in ref. [52].
For the droplet assay, Widom 601 DNA was amplified by PCR using a plasmid coding for 12× 601 DNA with primers as follows: 601 DNA_F: […] and 601 DNA_R: TGCACAGGATGTATATATCTGACAC. HP1α was concentrated to ~10 µg/µl using Amicon concentrators. The buffer changes for both HP1α and GFP-KAP1FR solutions were carried out using Zeba™ Spin Desalting Columns with a buffer containing 20 mM HEPES at pH 7.2, 75 mM KCl, and 1 mM DTT. For visualization of His-tagged-HP1α within the droplets, 500 ng of protein was labeled with the 647 N fluorescent label using the Monolith NT™ Protein Labeling Kit RED-NHS from Nano Temper. To form HP1α droplets, 50 µM of HP1α was incubated with 0.18 µM of 601 DNA for 3 min and dropped into ibidi chamber (µ-Slide 18 Well). Subsequently, 50 ng of the labeled HP1α and 100 ng of GFP-KAP1FR (wild type or mutant) were added into HP1α/DNA droplets. The images of the droplets were collected using a Nikon TiE microscope equipped with a Yokogawa CSU-W1 spinning-disk confocal unit (50 μm pinhole size), an Andor Borealis illumination unit, Andor ALC600 laser beam combiner (405 nm/488 nm/561 nm/640 nm), Andor IXON 888 Ultra EMCCD camera, and a Nikon 100×/1.45 NA oil immersion objective. The size and intensity of HP1α phase-separated droplets were analyzed using ImageJ.

[2] = test system: endogenous HP1α in KAP1^−/− ESCs; test: immunofluorescence of endogenous HP1α; type: cell-based; conditions: KAP1^−/− mouse ESCs stably expressing the GFP-labeled construct, anti-HP1α antibody, DAPI
Protocol: The constructs coding for GFP-KAP1RF and the P486A/V488A/L490A mutant were transfected into 1 ×10^5 KAP1^−/− mouse ESCs using Lipofectamine 3000 (Invitrogen). Forty-eight hours post-transfection, cells were trypsinized and plated at a colony density in selection medium containing 10 μg/ml blasticidin (Thermo Fisher Sci) for one week. The selection process was repeated once to establish stable GFP-KAP1 expressing cell lines.
For immunostaining, mouse ESCs were cultured on Geltrex-coated coverslips (Life Technologies) in DMEM supplemented with 16% fetal bovine serum, 0.1 mM β-mercaptoethanol (Invitrogen), 2 mM L-glutamine, 1× MEM non-essential amino acids, 100 U/ml penicillin, 100 µg/ml streptomycin (PAA), 2i (1 μM PD032591 and 3 μM CHIR99021 (Axon Medchem, Netherlands) and 1000 U/ml recombinant LIF (Millipore). Coverslips were rinsed twice with PBS (pH 7.4; 140 mM NaCl, 2.7 mM KCl, 6.5 mM Na2HPO4, 1.5 mM KH2PO4), followed by fixation with 3.7% formaldehyde (Sigma) for 10 min. Fixed cells were washed three times (10 min each) with PBST (PBS + 0.01% Tween-20), permeabilized in 0.5% Triton X-100 for 10 min, and washed twice (10 min each) with PBST. Primary and secondary antibodies were prepared in blocking solution (PBST + 3% BSA). […]

[3] = test system: dsRed-HP1α in E14 ESC cells; test: heterochromatin half-FRAP (MOCHA-FRAP); type: cell-based, mouse; conditions: bleached and non-bleached half of heterochromatin compartment, living ESCs
Protocol: E14 ESC cells were transfected with 3 µg of pdsRed-HP1α and either pGFP or pGFP-KAP1FR using AMAXA nucleofector (Lonza), seeded in slide chambers containing high precision glass overnight at 37 °C and 5% CO2. Samples were analyzed using a Leica SP5-II confocal point scanner microscope equipped with 488 nm Argon ion and 561 nm DPSS 50 mW lasers, a AOBS beams splitter and a HyD Hybrid detector. Cells were first scanned for GFP^+ using a HCX PL APO 100x Corr CS objective, and a section of 64 × 64 pixels with 0.8-0.6 µm/px size containing one heterochromatin compartment of these cells was selected. Subsequently, a point region of interest was used to bleach the half of the heterochromatin compartment for 100 ms at maximum intensity of the laser (488 and 561 nm). The recovery was documented for 15 s with a frame rate of approximately 100 ms/frame. MOCHA-FRAP analysis was performed as in ref. [36].

B1: GFP-KAP1FR: GFP labeled KAP1 fragment (aa 114–834 of KAP1) (protein)
chain: VVDCPVCKQQCFSKDIVENYFMRDSGSKAATDAQDANQCCTSCEDNAPATSYCVECSEPLCETCVEAHQRVKYTKDHTVRSTGPAKSRDGERTVYCNVHKHEPLVLFCESCDTLTCRDCQLNAHKDHQYQFLEDAVRNQRKLLASLVKRLGDKHATLQKSTKEVRSSIRQVSDVQKRVQVDVKMAILQIMKELNKRGRVLVNDAQKVTEGQQERLERQHWTMTKIQKHQEHILRFASWALESDNNTALLLSKKLIYFQLHRALKMIVDPVEPHGEMKFQWDLNAWTKSAEAFGKIVAERPGTNSTGPAPMAPPRAPGPLSKQGSGSSQPMEVQEGYGFGSGDDPYSSAEPHVSGVKRSRSGEGEVSGLMRKVPRVSLERLDLDLTADSQPPVFKVFPGSTTEDYNLIVIERGAAAAATGQPGTAPAGTPGAPPLAGMAIVKEEETEAAIGAPPTATEGPETKPVLMALAEGPGAEGPRLASPSGSTSSGLEVVAPEGTSAPGGGPGTLDDSATICRVCQKPGDLVMCNQCEFCFHLDCHLPALQDVPGEEWSCSLCHVLPDLKEEDGSLSLDGADSTGVVAKLSPANQRKCERVLLALFCHEPCRPLHQLATDSTFSLDQPGGTLDLTLIRARLQEKLSPPYSSPQEFAQDVGRMFKQFNKLTEDKADVQSIIGLQRFFETRMNEAFGDTKFSAVLVEPPPMSLPGAGLSSQELSGGPGDG
modifications: left off: GFP, end not stated, kept
What does the source list for B1?
sequestration of 647N labeled HP1α into droplets ([1]; 20 mM HEPES pH 7.2, 75 mM KCl, 1 mM DTT, 100 ng GFP-KAP1FR, 50 ng labeled HP1α): sequestered HP1a into the interior of droplets within a minute; localization of GFP-KAP1FR in droplets ([1]; confocal microscopy): concentrated at the periphery of the droplets; distribution of endogenous HP1α (puncta) [2]: Endogenous HP1α formed large puncta and colocalized with GFP-KAP1FR; fluorescence recovery of HP1α [3]: neither the bleached half (thin purple line) nor the non-bleached half (thick purple line) fully recovered their fluorescence
